# Data taken from article PMC7918451.
# Key:
# [1] = target: T1, Interleukin-6 (IL-6) ((aptamer stated to be specific to mouse IL-6)) (UniProt P08505); test: GFET (graphene field-effect transistor), Hill-Langmuir fit, n = 0.3; conditions: pH ~3.64, 2 mM MgCl2; 5' amine coupled to 1-pyrenebutyric acid NHS ester (5' pyrene); 0.01x PBS with 2 mM MgCl2, pH ~7.4 (or adjusted to ~3.64), 10 min exposure per concentration, temperature not stated; aptamer immobilized on graphene
# T1 sequence: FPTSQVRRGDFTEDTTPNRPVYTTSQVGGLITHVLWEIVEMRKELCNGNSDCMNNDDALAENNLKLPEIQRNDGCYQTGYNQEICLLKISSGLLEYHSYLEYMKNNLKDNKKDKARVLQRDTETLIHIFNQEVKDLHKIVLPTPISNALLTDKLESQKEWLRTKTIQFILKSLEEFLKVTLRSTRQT
# [2] = target: T1, Interleukin-6 (IL-6) ((aptamer stated to be specific to mouse IL-6)); test: manufacturer value; conditions: 5' amine; 0.01x PBS with 2 mM MgCl2, pH ~7.4 (or adjusted to ~3.64), 10 min exposure per concentration, temperature not stated; aptamer immobilized on graphene; cited from earlier work
substance,measurement,setting,value
"IL-6 aptamer ATW0077 (Base Pair Biotechnologies), pyrene-tagged (PTDA)",Kd,[1],3.4 nM
"IL-6 aptamer ATW0077, as supplied (manufacturer Kd)",Kd,[2],5.4 nM
